# Test results: article PMC12242641 (ACS Omega, 2025)
# B1: human tripartite motif-containing protein 25 (TRIM25), residues 183-380 (domain or fragment, UniProt Q14258 183-380, looked up)
# chain: HKTCSPASLSQASADLEATLRHKLTVMYSQINGASRALDDVRNRQQDVRMTANRKVEQLQQEYTEMKALLDASETTSTRKIKEEEKRVNSKFDTIYQILLKKKSEIQTLKEEIEQSLTKRDEFEFLEKASKLRGISTKPVYIPEVELNHKLIKGIHQSTIDLKNELKQCIGRLQEPTPSSGDPGEHDPASTHKSTRPV
# notes: not shown: His6, N-terminal, cleaved; SUMO, N-terminal, cleaved
# Biological target: the molecule itself
# Assay: […]; 20 mM sodium phosphate pH 7, 100 mM NaCl, 2 mM TCEP
protein,measurement,value
B1,stoichiometry N,2
